Experimental data from the supplement of paper PMC10567573.

B1: KCNAB2 (parent)
chain: SSIIHEIDSILGNKPYSKKDYRS

Variants of: B1
Experiment: protein stability index of a GFP-peptide fusion (GPS, HEK-293T) (PSI 1-6); higher = more stable
Conditions: c terminus: native
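Note: lentivirally expressed fusions sorted by FACS into six bins by GFP to DsRed ratio, PSI derived from sequencing read proportions per bin multiplied by bin number.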

Row | Variant | protein stability index
1 | SSIIHEIDSILINKPYSKKDYRS [G12I] | 2.62
2 | SSIIHEIDSILANKPYSKKDYRS [G12A] | 2.61
3 | SSIIHEIDSILLNKPYSKKDYRS [G12L] | 2.8
4 | SSIIHEIDSILPNKPYSKKDYRS [G12P] | 3.86
5 | SSIIHEIDSILCNKPYSKKDYRS [G12C] | 2.82
6 | SSIIHEIDSILWNKPYSKKDYRS [G12W] | 2.6
7 | SSIIHEIDSILMNKPYSKKDYRS [G12M] | 3.77
8 | SSIIHEIDSILFNKPYSKKDYRS [G12F] | 4.21
9 | SSIIHEIDSILSNKPYSKKDYRS [G12S] | 3.51
10 | SSIIHEIDSILTNKPYSKKDYRS [G12T] | 3.24
11 | SSIIHEIDSILENKPYSKKDYRS [G12E] | 3.69
12 | SSIIHEIDSILKNKPYSKKDYRS [G12K] | 3.38
13 | SSIIHEIDSILRNKPYSKKDYRS [G12R] | 2.73
14 | SSIIHEIDSILVNKPYSKKDYRS [G12V] | 2.76
15 | SSIIHEIDSILYNKPYSKKDYRS [G12Y] | 2.97
16 | SSIIHEIDSILQNKPYSKKDYRS [G12Q] | 3.16
17 | SSIIHEIDSILNNKPYSKKDYRS [G12N] | 3.18
18 | SSIIHEIDSILDNKPYSKKDYRS [G12D] | 3.81
19 | SSIIHEIDSILGYKPYSKKDYRS [N13Y] | 1.79
20 | SSIIHEIDSILGIKPYSKKDYRS [N13I] | 2.51
21 | SSIIHEIDSILGGKPYSKKDYRS [N13G] | 2.61
22 | SSIIHEIDSILGHKPYSKKDYRS [N13H] | 3
23 | SSIIHEIDSILGQKPYSKKDYRS [N13Q] | 2.63
24 | SSIIHEIDSILGWKPYSKKDYRS [N13W] | 2.38
25 | SSIIHEIDSILGMKPYSKKDYRS [N13M] | 2.56

Row | Variant | protein stability index
26 | SSIIHEIDSILGCKPYSKKDYRS [N13C] | 2.25
27 | SSIIHEIDSILGRKPYSKKDYRS [N13R] | 3.1
28 | SSIIHEIDSILGEKPYSKKDYRS [N13E] | 2.82
29 | SSIIHEIDSILGSKPYSKKDYRS [N13S] | 2.59
30 | SSIIHEIDSILGTKPYSKKDYRS [N13T] | 2.97
31 | SSIIHEIDSILGLKPYSKKDYRS [N13L] | 2.47
32 | SSIIHEIDSILGVKPYSKKDYRS [N13V] | 2.59
33 | SSIIHEIDSILGAKPYSKKDYRS [N13A] | 2.14
34 | SSIIHEIDSILGPKPYSKKDYRS [N13P] | 2.54
35 | SSIIHEIDSILGFKPYSKKDYRS [N13F] | 2.68
36 | SSIIHEIDSILGNMPYSKKDYRS [K14M] | 2.9
37 | SSIIHEIDSILGNSPYSKKDYRS [K14S] | 3.49
38 | SSIIHEIDSILGNEPYSKKDYRS [K14E] | 3.24
39 | SSIIHEIDSILGNRPYSKKDYRS [K14R] | 3.09
40 | SSIIHEIDSILGNAPYSKKDYRS [K14A] | 2.62
41 | SSIIHEIDSILGNQPYSKKDYRS [K14Q] | 3.1
42 | SSIIHEIDSILGNLPYSKKDYRS [K14L] | 2.77
43 | SSIIHEIDSILGNIPYSKKDYRS [K14I] | 2.63
44 | SSIIHEIDSILGNVPYSKKDYRS [K14V] | 2.94
45 | SSIIHEIDSILGNPPYSKKDYRS [K14P] | 3
46 | SSIIHEIDSILGNGPYSKKDYRS [K14G] | 2.69
47 | SSIIHEIDSILGNHPYSKKDYRS [K14H] | 2.32
48 | SSIIHEIDSILGNTPYSKKDYRS [K14T] | 2.89
49 | SSIIHEIDSILGNFPYSKKDYRS [K14F] | 1.99
50 | SSIIHEIDSILGNDPYSKKDYRS [K14D] | 3.31

Row | Variant | protein stability index
51 | SSIIHEIDSILGNCPYSKKDYRS [K14C] | 2.55
52 | SSIIHEIDSILGNNPYSKKDYRS [K14N] | 3.22
53 | SSIIHEIDSSLGNKPYSKKDYRS [I10S] | 3.68
54 | SSIIHEIDSQLGNKPYSKKDYRS [I10Q] | 4.47
55 | SSIIHEIDSLLGNKPYSKKDYRS [I10L] | 3.12
56 | SSIIHEIDSWLGNKPYSKKDYRS [I10W] | 1.96
57 | SSIIHEIDSVLGNKPYSKKDYRS [I10V] | 3.67
58 | SSIIHEIDSCLGNKPYSKKDYRS [I10C] | 3.79
59 | SSIIHEIDSYLGNKPYSKKDYRS [I10Y] | 3
60 | SSIIHEIDSNLGNKPYSKKDYRS [I10N] | 4.38
61 | SSIIHEIDSDLGNKPYSKKDYRS [I10D] | 4.05
62 | SSIIHEIDSRLGNKPYSKKDYRS [I10R] | 4.3
63 | SSIIHEIDSGLGNKPYSKKDYRS [I10G] | 4.32
64 | SSIIHEIDSELGNKPYSKKDYRS [I10E] | 3.45
65 | SSIIHEIDSTLGNKPYSKKDYRS [I10T] | 3.89
66 | SSIIHEIDSFLGNKPYSKKDYRS [I10F] | 2.32
67 | SSIIHEIDSKLGNKPYSKKDYRS [I10K] | 4.87
68 | SSIIHEIDSALGNKPYSKKDYRS [I10A] | 4.13
69 | SSIIHEIDSMLGNKPYSKKDYRS [I10M] | 3.32
70 | SSIIHEIDSHLGNKPYSKKDYRS [I10H] | 4.15
71 | SSIIHEIDSPLGNKPYSKKDYRS [I10P] | 4.38
72 | SSIIHEIDWILGNKPYSKKDYRS [S9W] | 2.9
73 | SSIIHEIDYILGNKPYSKKDYRS [S9Y] | 2.24
74 | SSIIHEIDQILGNKPYSKKDYRS [S9Q] | 3.19
75 | SSIIHEIDRILGNKPYSKKDYRS [S9R] | 2.58

Row | Variant | protein stability index
76 | SSIIHEIDVILGNKPYSKKDYRS [S9V] | 2.53
77 | SSIIHEIDPILGNKPYSKKDYRS [S9P] | 3.81
78 | SSIIHEIDTILGNKPYSKKDYRS [S9T] | 3.41
79 | SSIIHEIDSIFGNKPYSKKDYRS [L11F] | 3.07
80 | SSIIHEIDSIRGNKPYSKKDYRS [L11R] | 4.13
81 | SSIIHEIDSIWGNKPYSKKDYRS [L11W] | 2.63
82 | SSIIHEIDSIVGNKPYSKKDYRS [L11V] | 3.69
83 | SSIIHEIDSIPGNKPYSKKDYRS [L11P] | 4.19
84 | SSIIHEIDSINGNKPYSKKDYRS [L11N] | 4
85 | SSIIHEIDSIIGNKPYSKKDYRS [L11I] | 3.42
86 | SSIIHEIDSIAGNKPYSKKDYRS [L11A] | 3.9
87 | SSIIHEIDSIEGNKPYSKKDYRS [L11E] | 4.69
88 | SSIIHEIDSIQGNKPYSKKDYRS [L11Q] | 4.91
89 | SSIIHEIDSIYGNKPYSKKDYRS [L11Y] | 3.4
90 | SSIIHEIDSIGGNKPYSKKDYRS [L11G] | 4.19
91 | SSIIHEIDSITGNKPYSKKDYRS [L11T] | 4.27
92 | SSIIHEIDSISGNKPYSKKDYRS [L11S] | 4.36
93 | SSIIHEIDSIMGNKPYSKKDYRS [L11M] | 4.04
94 | SSIIHEIDSIKGNKPYSKKDYRS [L11K] | 4.03
95 | SSIIHEIDSICGNKPYSKKDYRS [L11C] | 3.86
96 | SSIIHEIDSIDGNKPYSKKDYRS [L11D] | 4.72
97 | SSIIHEIDSIHGNKPYSKKDYRS [L11H] | 4.46
